# According to patent US20190040368:
# T1: recombinant human iduronate-2 sulfatase (rhIDS)
# T1 chain: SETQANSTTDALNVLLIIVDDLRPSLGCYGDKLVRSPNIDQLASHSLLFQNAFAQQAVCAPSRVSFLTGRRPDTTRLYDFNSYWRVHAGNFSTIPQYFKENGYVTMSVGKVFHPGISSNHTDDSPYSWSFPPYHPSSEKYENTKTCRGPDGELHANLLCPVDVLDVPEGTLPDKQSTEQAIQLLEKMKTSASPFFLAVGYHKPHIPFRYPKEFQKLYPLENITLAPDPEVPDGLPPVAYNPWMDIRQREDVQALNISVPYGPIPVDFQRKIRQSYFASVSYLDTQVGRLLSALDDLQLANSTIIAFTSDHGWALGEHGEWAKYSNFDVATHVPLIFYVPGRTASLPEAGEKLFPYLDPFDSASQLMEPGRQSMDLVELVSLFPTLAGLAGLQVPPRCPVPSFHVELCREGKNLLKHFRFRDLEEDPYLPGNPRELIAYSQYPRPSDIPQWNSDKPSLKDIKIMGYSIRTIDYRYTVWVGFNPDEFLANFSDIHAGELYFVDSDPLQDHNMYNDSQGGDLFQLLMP
# B1: Gallus gallus Lip2-GgFGE-His6-HDEL fusion construct (protein)
# chain: GKETAPGGNCGCSASRSRGGEREAVATVRRYSAAANDGRSSGRGPMVAIPGGVFTMGTDEPEIQQDGEWPARRVHVNSFYMDQYEVSNQEFERFVNSTGYLTEAEKFGDSFVFEGMLSEEVKAEIHQAVAAAPWWLPVKGANWRQPEGPGSSILSRMDHPVLHVSWNDAVAFCTWAGKRLPTEAEWEYGCRGGLEKRLFPWGNKLQPKGQHYANIWQGVFPTNNTAEDGYKGTAPVTAFPPNGYGLYNIVGNAWEWTSDWWAVHHSADEAHNPKGPSSGTDRVKKGGSYMCHKSYCYRYRCAARSQNTPDSSASNLGFRCAADALPDPQHHHHHHHDEL
# B2: Streptomyces coelicolor FGE fusion protein (Lip2pre-ScFGE-6HIS-HDEL) (protein)
# chain: MAVAAPSPAAAAEPGPAARPRSTRGQVRLPGGEFAMGDAFGEGYPADGETPVHTVRLRPFHIDETAVTNARFAAFVKATGHVTDAERFGSSAVFHLVVAAPDADVLGSAAGAPWWINVRGAHWRRPEGARSDITGRPNHPVVHVSWNDATAYARWAGKRLPTEAEWEYAARGGLAGRRYAWGDELTPGGRWRCNIWQGRFPHVNTAEDGHLSTAPVKSYRPNGHGLWNTAGNVWEWCSDWFSPTYYAESPTVDPHGPGTGAARVLRGGSYLCHDSYCNRYRVAARSSNTPDSSSGNLGFRCANDADLTSGSAAEHHHHHHHDEL
# B3: Chimeric Lip2pre-BtFGE-HpFGE-6xHis-HDEL fusion construct (protein)
# chain: MKLSTILFTACATLAAAAGGEEAGPEAGAPSLVGSCGCGNPQRPGAQGSSAAAHRYSREANAPGSVPGGRPSPPTKMVPIPAGVFTMGTDKAKIYLDGESPSRLVTLDPYYFDVYEVSNSEFELFVNTTSYITEAEKFGDSFVLEARISEEVKKDISQVVAAAPWWLPVKGAEWRHPEGPDSSISSRMDHPVTHISWNDATAYCQWAGKRLPTEAEWENAARGGLNNRLFPWGNKLMPKDHHRVNIWQGEFPKVNTAEDGYEGTCPVTAFEPNGYGLYNTVGNAWEWVADWWTTVHSPESQNNPVGPDEGTDKVKKGGSYMCHISYCYRYRCEARSQNSPDSSACNLGFRCAATNLPEDIPCSNCNDSTPHHHHHHHDEL
# B4: Lip2pre-6xHis-BtFGE-WBP1 fusion construct (protein)
# chain: MKLSTILFTACATLAAAHHHHHHAGGEEAGPEAGAPSLVGSCGCGNPQRPGAQGSSAAAHRYSREANAPGSVPGGRPSPPTKMVPIPAGVFTMGTDDPQIKQDGEAPARRVAIDAFYMDAYEVSNAEFEKFVNSTGYLTEAEKFGDSFVFEGMLSEQVKSDIQQAVAAAPWWLPVKGANWRHPEGPDSTVLHRPDHPVLHVSWNDAVAYCTWAGKRLPTEAEWEYSCRGGLQNRLFPWGNKLQPKGQHYANIWQGEFPVTNTGEDGFRGTAPVDAFPPNGYGLYNIVGNAWEWTSDWWTVHHSAEETINPKGPPSGKDRVKKGGSYMCHKSYCYRYRCAARSQNTPDSSASNLGFRCAADHLPTTGADHLPTTGFTMLNPYYRLTLEQTGTTNFSAIYSTTFKIPDQHGVFTFNLDYKRPGYTFIEEKTRATIRHTANDEWPRSWEITNSWVYLTSAVMVVIAWFLFVVFYLFVGKADKEAVHKQ
# B5: MNS1-BtFGE-6xHis fusion construct (protein)
# chain: MSFNIPKTTPNFSAKARKLEDQLWQASGLEKSKDSTLPLYKDKPYGEGFVARTTSGRRRRNIIYGVVVGLLFWAIYTFSRSLDGNVSLKDGIKDYEFKGWKGRGKPKTNWVAEQNAVKQAFVDSWNGYHKYAWGKDVYKPQTKTGKNMGPKPLGWFIVDSLDSGGEEAGPEAGAPSLVGSCGCGNPQRPGAQGSSAAAHRYSREANAPGSVPGGRPSPPTKMVPIPAGVFTMGTDDPQIKQDGEAPARRVAIDAFYMDAYEVSNAEFEKFVNSTGYLTEAEKFGDSFVFEGMLSEQVKSDIQQAVAAAPWWLPVKGANWRHPEGPDSTVLHRPDHPVLHVSWNDAVAYCTWAGKRLPTEAEWEYSCRGGLQNRLFPWGNKLQPKGQHYANIWQGEFPVTNTGEDGFRGTAPVDAFPPNGYGLYNIVGNAWEWTSDWWTVHHSAEETINPKGPPSGKDRVKKGGSYMCHKSYCYRYRCAARSQNTPDSSASNLGFRCAADHLPTTGADHLPTTGHHHHHH
# B6: Columba livia Lip2-C1FGE-His6-HDEL fusion construct (protein)
# chain: MVVIPGGVFTMGTDEPAIQQDGEWPVRKVHVNSFYMDRYEVSNEDFERFVNSTGYVTEAEKFGDSFVFEGMLSEEVKAEIHQAVAAAPWWLPVKGANWKHPEGPDSNISNRMDHPVLHVSWNDAVAFCTWAGKRLPTEAEWEYSCRGGLENRLFPWGNKLQPKGQHYANIWQGVFPTNNTAEDGYKGTAPVTAFPPNGYGLYNIVGNAWEWTADWWAVHHSTEEVHNPKGPSSGTDRVKKGGSYMCHKSYCYRYRCAARSQNTPDSSASNLGFRCAADASPELPHHHHHHHDEL
# B7: Monodelphis domestica Lip2-MdFGE-His6-HDEL fusion construct (protein)
# chain: AARGLGSEAGSAAADAAHPAGTCGCGSPQRPGTAAHRYSREANVAEPASAERPVLTSQMAHIPAGVFTMGTDEPQIKQDGEGPARRVRINSFYMDLYEVSNAEFERFVNSTGYVTEAEKFGDSFVFDSMLSDQVKSDIHQAVAAAPWWLPVKGANWRHPEGPDSSILHRRDHPVLHVSWNDAVAYCTWAGKRLPTEAEWEYSCRGGLENRLFPWGNKLQPKGQHYANIWQGEFPVSNTGEDGYQGTAPVTAFPPNGYGLYNIVGNAWEWTSDWWTVHHSADETLDPKGPPSGSDRVKKGGSYMCHKSYCYRYRCAARSQNTPDSSASNLGFRCAADRLPDTHHHHHHHDEL
# B8: Tupaia chinensis Lip2-TupFGE-His6-HDEL fusion construct (protein)
# chain: EEARTGAGATSAQGPCGCGTPQRPGSHGSSAAAHRYSREANVPGPVPGERQPEATKMVPIPAGVFTMGTDDPQIKQDGEAPARRVAIDAFYMDAYEVSNAEFEKFVNSTGYLTEAEKFGDSFVFEGMLSEQVKTGIQQAVAAAPWWLPVKGANWRHPEGPDSTILHRADHPVLHVSWNDAVAYCTWAGKRLPTEAEWEYSCRGGLQNRLFPWGNKLQPRGQHYANIWQGEFPVTNTAEDGFQGTAPVDAFPPNGYGLYNIVGNAWEWTSDWWTVYHSVEETLNPKGPPSGKDRVKKGGSYMCHKSYCYRYRCAARSQNTPDSSASNLGFRCAADRLPTHHHHHHHDEL
# B9: Human FGE fusion protein (Lip2pre-hFGE-HDEL) (protein)
# chain: SQEAGTGAGAGSLAGSCGCGTPQRPGAHGSSAAAHRYSREANAPGPVPGERQLAHSKMVPIPAGVFTMGTDDPQIKQDGEAPARRVTIDAFYMDAYEVSNTEFEKFVNSTGYLTEAEKFGDSFVFEGMLSEQVKTNIQQAVAAAPWWLPVKGANWRHPEGPDSTILHRPDHPVLHVSWNDAVAYCTWAGKRLPTEAEWEYSCRGGLHNRLFPWGNKLQPKGQHYANIWQGEFPVTNTGEDGFQGTAPVDAFPPNGYGLYNIVGNAWEWTSDWWTVHHSVEETLNPKGPPSGKDRVKKGGSYMCHRSYCYRYRCAARSQNTPDSSASNLGFRCAADRLPTMDHDEL
# B10: Hemicentrotus pulcherrimus FGE fusion protein (Lip2pre-HpFGE-6HIS-HDEL) (protein)
# chain: ENEDINQNISPTQSHTTATTEEELAEARGEEIDSDPTSEGSGAGEGCGCGSSALNRNHDEDALGLALEENLHDHVQEGAALKYSREANDPISMDHPEANVGAFPRTNQMNFIEGGTFRMGTDKAKIYLDGESPSRLVTLDPYYFDVYEVSNSEFELFVNTTSYITEAEKFGDSFVLEARISEEVKKDISQVVAAAPWWLPVKGAEWRHPEGPDSSISSRMDHPVTHISWNDATAYCQWAGKRLPTEAEWENAARGGLNNRLFPWGNKLMPKDHHRVNIWQGEFPKVNTAEDGYEGTCPVTAFEPNGYGLYNTVGNAWEWVADWWTTVHSPESQNNPVGPDEGTDKVKKGGSYMCHISYCYRYRCEARSQNSPDSSACNLGFRCAATNLPEDIPCSNCNDSTPHHHHHHHDEL
# Target: T1, recombinant human iduronate-2 sulfatase …
protein,measurement,value
B1,% activity of rhIDS; co-expression with GgFGE,33%
B2,"active rhIDS (4MU fluorogenic activity assay against sandwich ELISA), co-expression in Y. lipolytica",All Y. lipolytica strains co-expressing rFGE with rhIDS resulted in the expression of active rhIDS.
B3,"% active rhIDS (4MU activity against ELISA); 1 copy rhIDS, 2 copy ChFGE (POX/Hp4d)-20° C.",0%
same,"% active rhIDS (4MU activity against ELISA); 1 copy rhIDS, 2 copy ChFGE (POX/Hp4d)-28° C.",0%
B4,"% active rhIDS (4MU activity against ELISA); 1 copy rhIDS, 2 copy BtFGE-WBPI (POX/Hp4d)",124%
B5,% FGly conversion; one copy of rhIDS and 2 copies of BtFGE-MNS1,100% FGly conversion
same,"% active rhIDS (4MU activity against ELISA); 1 copy rhIDS, 2 copy BtFGE-MNS1 (POX/Hp4d)",98%
same,% activity of rhIDS; one copy of rhIDS and 2 copies of BtFGE-MNS1,81.5% activity
B6,% activity of rhIDS; co-expression with ClFGE,61%
B7,% activity of rhIDS; co-expression with MdFGE,58%
B8,% activity of rhIDS; co-expression with TupFGE,51%
B9,"active rhIDS (4MU fluorogenic activity assay against sandwich ELISA), co-expression in Y. lipolytica",All Y. lipolytica strains co-expressing rFGE with rhIDS resulted in the expression of active rhIDS.
B10,% FGly conversion (nano-LC MS); strain T148 (OXYY1801; HpFGE),8.1%
same,% FGly conversion (nano-LC MS); strain T148 (OXYY1801; HpFGE) (20° C.),68.1%
same,"% FGly conversion (nano-LC MS); strain T148 (OXYY1801; HpFGE), duplicate",3.72%
same,"% FGly conversion-re-analyzed samples; DG29U7#7, OXYY1801; HpFGE",19.2%
same,"% FGly conversion-re-analyzed samples; DG33U1#6, OXYY1801, HpFGE",8.3%
same,"% FGly conversion-re-analyzed samples; DG33U3#6, OXYY1801; HpFGE (20° C.)",84.5%
same,"active rhIDS (4MU fluorogenic activity assay against sandwich ELISA), co-expression in Y. lipolytica",All Y. lipolytica strains co-expressing rFGE with rhIDS resulted in the expression of active rhIDS.
